Assay: soluble on expression in E. coli; label from the status in PepcDB or PDB records

Soluble on expression in E. coli, not soluble:
MGSDKIHHHHHHMTTTSPDISRFGPIGLVVIQSTSLCNLDCSYCYLPDRKSRKIFDLELLPLLMQRIFESPFFGEELSLVWHAGEPLTLPCSYYDRATQLINEAVEQWTNGTVHVEQHVQTNATLINDAWCECFRRNKIIVGISVDGPKDIHDANRCFGNGEGSHVHSMRGIEALKRNKIPFHAIAVVTATAMDHPNEMYQFFRDNEIHSVGFNVEEQEGEHTSSSMQGYEREEQYRQFLESFWQLSEQDGFPVVLREFDQVISLIRENRRLNQNELNRPYSILSVDWQGNFSTFDPELLSVSSKLYGTFDLGSIRNISLMEAAKTERFQTLWKDMLSGVKRCEKECNYFGFCGGGMGSNKFWEHGSLNCSETNACRFNNKIPVDVLLDRFKSSPPIDNETPF
MQNPIDSLLYVKISAEQAGKIFENLESSIPLPIQLSEPGQKEDFKAENIKPEMILAGMLTVFAYDRENPHITYYRKIFNLLRPDIRKEMTEAAIIKIKNNDFDMAEEILLSLEGLNPDDGITKLNLALLMEERSQFCEMRELFEDALSFNKRAEELYSELILFEPPLPGVFFNAAYFFIKQKNYIKAKSLLKTYLEIENDSSETAEFRKAKASELLKTISEQALDDELFQKAYKCIDLGEEEKAAESIKLFLRKNPKVWNAWFLLGWALRRMGRWEDARSSFLKTIELLENSEISDKEPLCDVYNELAICLMELELFDEAEKHLINALSLDSENIKIISNLGTLALKQGKQEEAEAFFRTVLEINPDDKIALNVLGKPRA
NDIYNNAITPYLNKETGYQEMFQRVNTRIREFMINELKNHHNEDNVFMLAKNSGIEIAKIEEAPNAVLIPAFVLGELEVAFK

Soluble on expression in E. coli, soluble:
MGSDKIHHHHHHMKIAVLPGDGIGPEVVREALKVLEVVEKKTGKTFEKVFGHIGGDAIDRFGEPLPEETKKICLEADAIFLGSVGGPKWDDLPPEKRPEIGGLLALRKMLNLYANIRPIKVYRSLVHVSPLKEKVIGSGVDLVTVRELSYGVYYGQPRGLDEEKGFDTMIYDRKTVERIARTAFEIAKNRRKKVTSVDKANVLYSSMLWRKVVNEVAREYPDVELTHIYVDNAAMQLILKPSQFDVILTTNMFGDILSDESAALPGSLGLLPSASFGDKNLYEPAGGSAPDIAGKNIANPIAQILSLAMMLEHSFGMVEEARKIERAVELVIEEGYRTRDIAEDPEKAVSTSQMGDLICKKLEEIW
MLKIISANVNGIRSAYKKGFYEYIAASGADIVCVQELKAQEADLSADMKNPHGMHGHWHCAEKRGYSGVAVYSKRKPDNVQIGMGIEEFDREGRFVRCDFGRLSVISLYLPSGSSAEERQQVKYRFLDAFYPMLEAMKNEGRDIVVCGDWNIAHQNIDLKNWKGNQKNSGFLPEEREWIGKVIHKLGWTDMWRTLYPDVPGYTWWSNRGQAYAKDVGWRIDYQMVTPELAAKAVSAHVYKDEKFSDHAPLVVEYDYAAE
MEEDLLGICGFDSSKKYRLEELAKYQSGSCIEFEDDDEMAVDYPCPFCSDDYDLVELCHHIDEEHQLDANNGICPVCSRRVKMHMVDHITTQHRDVFKRLYKDESYSAFSPGTRKYLQSLIDEPLSTNHTSKSVLDPLLSFIYNPPSPKKSKLVQPDSSSEASMEDNSLIRDSTEKDWESPSPLSDTELLEKAKKREFVQGLISSAIFDHIYNF
MTTVSEQANFTFSPEEVARFERDGYIGPVKIFEPEEMTRRWNIIRRQLLDRSLAIYPDSNGKANISNYDRHLDIDLLAEHIMRPEIVDRVGSLIGRNLLCWRSEFFPKYQGDEGTDWHQAATFAHATGKPQIIWPSDEGRPAFIGTITVWTAFTHSTEQNGCLQLMPGTHTSMNYDESKGMDYDADAINQREKDGIKRGFFGYDYRSLQKDPDWKPDESQAYPMVLKPGEAVIFWSNTMHASLPHTGSKTDYRMGFAARYVPTQVQVYPGTENLTEYGDGINLEKYGAVLTSGVDEYGHNRIARTSQRGYEFVPRQIPS

Source: the DeepSol protein solubility set
